# In patent US20110256140A1 (POMONA RICERCA S R L, published 2011):
# B1: Fab e20 (Fab, V domains shown)
# VH: LLEQSGAEVKKPGSSVKVSCKASGDHYGINWVRQAPGQGLEWMGGIIPVFGTTTYAQKFQGRATITADDSTGTAFLELTRLTFDDTAVYFCATPHQLHVLRGGKALSPWDYWGQGT
# VL: MAELTQSPATLSVSPGERATLSCRASQSVSSNLAWYQQKRGQAPSLLIYGTSTRATGIPARFSGSGSGTEFTLTISSLQSEDFAVYYCQQYNDWPSTFGQGT
# notes: also called e20 antibody fragment
# Assays:
# Experiment in all cases: binding of Fab e20 to H77 E1E2 alanine mutants; method not stated
# H77 E1E2 mutant I422A = biological target: T1, H77 E1E2 mutant I422A (Hepatitis C virus genotype 1a, H77, UniProt P27958 384-746)
# T1 construct: Co-expressed with E1; P27958 is the whole polyprotein
# H77 E1E2 mutant R483A = biological target: T2, H77 E1E2 mutant R483A (Hepatitis C virus genotype 1a, H77, UniProt P27958 384-746)
# T2 construct: Co-expressed with E1; P27958 is the whole polyprotein
# H77 E1E2 mutant D533A = biological target: T3, H77 E1E2 mutant D533A (Hepatitis C virus genotype 1a, H77, UniProt P27958 384-746)
# T3 construct: Co-expressed with E1; P27958 is the whole polyprotein
# H77 E1E2 mutant P484A = biological target: T4, H77 E1E2 mutant P484A (Hepatitis C virus genotype 1a, H77, UniProt P27958 384-746)
# T4 construct: Co-expressed with E1; P27958 is the whole polyprotein
# H77 E1E2 mutant Q412A = biological target: T5, H77 E1E2 mutant Q412A (Hepatitis C virus genotype 1a, H77, UniProt P27958 384-746)
# T5 construct: Co-expressed with E1; P27958 is the whole polyprotein
# H77 E1E2 mutant T534A = biological target: T6, H77 E1E2 mutant T534A (Hepatitis C virus genotype 1a, H77, UniProt P27958 384-746)
# T6 construct: Co-expressed with E1; P27958 is the whole polyprotein
# H77 E1E2 mutant R543A = biological target: T7, H77 E1E2 mutant R543A (Hepatitis C virus genotype 1a, H77, UniProt P27958 384-746)
# T7 construct: Co-expressed with E1; P27958 is the whole polyprotein
# H77 E1E2 mutant H488A = biological target: T8, H77 E1E2 mutant H488A (Hepatitis C virus genotype 1a, H77, UniProt P27958 384-746)
# T8 construct: Co-expressed with E1; P27958 is the whole polyprotein
# H77 E1E2 mutant P544A = biological target: T9, H77 E1E2 mutant P544A (Hepatitis C virus genotype 1a, H77, UniProt P27958 384-746)
# T9 construct: Co-expressed with E1; P27958 is the whole polyprotein
# H77 E1E2 mutant N540A = biological target: T10, H77 E1E2 mutant N540A (Hepatitis C virus genotype 1a, H77, UniProt P27958 384-746)
# T10 construct: Co-expressed with E1; P27958 is the whole polyprotein
# H77 E1E2 mutant N415A = biological target: T11, H77 E1E2 mutant N415A (Hepatitis C virus genotype 1a, H77, UniProt P27958 384-746)
# T11 construct: Co-expressed with E1; P27958 is the whole polyprotein
# H77 E1E2 mutant Y527A = biological target: T12, H77 E1E2 mutant Y527A (Hepatitis C virus genotype 1a, H77, UniProt P27958 384-746)
# T12 construct: Co-expressed with E1; P27958 is the whole polyprotein
# H77 E1E2 mutant N532A = biological target: T13, H77 E1E2 mutant N532A (Hepatitis C virus genotype 1a, H77, UniProt P27958 384-746)
# T13 construct: Co-expressed with E1; P27958 is the whole polyprotein
# H77 E1E2 mutant P545A = biological target: T14, H77 E1E2 mutant P545A (Hepatitis C virus genotype 1a, H77, UniProt P27958 384-746)
# T14 construct: Co-expressed with E1; P27958 is the whole polyprotein
# H77 E1E2 mutant G418A = biological target: T15, H77 E1E2 mutant G418A (Hepatitis C virus genotype 1a, H77, UniProt P27958 384-746)
# T15 construct: Co-expressed with E1; P27958 is the whole polyprotein
# H77 E1E2 mutant H421A = biological target: T16, H77 E1E2 mutant H421A (Hepatitis C virus genotype 1a, H77, UniProt P27958 384-746)
# T16 construct: Co-expressed with E1; P27958 is the whole polyprotein
# H77 E1E2 mutant F550A = biological target: T17, H77 E1E2 mutant F550A (Hepatitis C virus genotype 1a, H77, UniProt P27958 384-746)
# T17 construct: Co-expressed with E1; P27958 is the whole polyprotein
# H77 E1E2 mutant W549A = biological target: T18, H77 E1E2 mutant W549A (Hepatitis C virus genotype 1a, H77, UniProt P27958 384-746)
# T18 construct: Co-expressed with E1; P27958 is the whole polyprotein
# H77 E1E2 mutant N417A = biological target: T19, H77 E1E2 mutant N417A (Hepatitis C virus genotype 1a, H77, UniProt P27958 384-746)
# T19 construct: Co-expressed with E1; P27958 is the whole polyprotein
# H77 E1E2 mutant G547A = biological target: T20, H77 E1E2 mutant G547A (Hepatitis C virus genotype 1a, H77, UniProt P27958 384-746)
# T20 construct: Co-expressed with E1; P27958 is the whole polyprotein
# H77 E1E2 mutant W420A = biological target: T21, H77 E1E2 mutant W420A (Hepatitis C virus genotype 1a, H77, UniProt P27958 384-746)
# T21 construct: Co-expressed with E1; P27958 is the whole polyprotein
# H77 E1E2 mutant W487A = biological target: T22, H77 E1E2 mutant W487A (Hepatitis C virus genotype 1a, H77, UniProt P27958 384-746)
# T22 construct: Co-expressed with E1; P27958 is the whole polyprotein
# H77 E1E2 mutant N423A = biological target: T23, H77 E1E2 mutant N423A (Hepatitis C virus genotype 1a, H77, UniProt P27958 384-746)
# T23 construct: Co-expressed with E1; P27958 is the whole polyprotein
# H77 E1E2 mutant S419A = biological target: T24, H77 E1E2 mutant S419A (Hepatitis C virus genotype 1a, H77, UniProt P27958 384-746)
# T24 construct: Co-expressed with E1; P27958 is the whole polyprotein
# H77 E1E2 mutant T416A = biological target: T25, H77 E1E2 mutant T416A (Hepatitis C virus genotype 1a, H77, UniProt P27958 384-746)
# T25 construct: Co-expressed with E1; P27958 is the whole polyprotein
# H77 E1E2 mutant D535A = biological target: T26, H77 E1E2 mutant D535A (Hepatitis C virus genotype 1a, H77, UniProt P27958 384-746)
# T26 construct: Co-expressed with E1; P27958 is the whole polyprotein
# [1] = biological target: H77 E1E2 mutant Y486A (Hepatitis C virus genotype 1a, H77) (UniProt P27958)
# [2] = biological target: H77 E1E2 mutant I413A (Hepatitis C virus genotype 1a, H77) (UniProt P27958)
# [3] = biological target: H77 E1E2 mutant G530A (Hepatitis C virus genotype 1a, H77) (UniProt P27958)
# [4] = biological target: H77 E1E2 mutant T414A (Hepatitis C virus genotype 1a, H77) (UniProt P27958)
binder,measurement,setting,value
B1,e20 binding activity (% of wild-type H77),H77 E1E2 mutant I422A,100 % of wild-type H77
same,e20 binding activity (% of wild-type H77),H77 E1E2 mutant R483A,100 % of wild-type H77
same,e20 binding activity (% of wild-type H77),H77 E1E2 mutant D533A,100 % of wild-type H77
same,e20 binding activity (% of wild-type H77),H77 E1E2 mutant P484A,100 % of wild-type H77
same,e20 binding activity (% of wild-type H77),H77 E1E2 mutant Q412A,100 % of wild-type H77
same,e20 binding activity (% of wild-type H77),H77 E1E2 mutant T534A,100 % of wild-type H77
same,e20 binding activity (% of wild-type H77),H77 E1E2 mutant R543A,68 % of wild-type H77
same,e20 binding activity (% of wild-type H77),H77 E1E2 mutant H488A,100 % of wild-type H77
same,e20 binding activity (% of wild-type H77),H77 E1E2 mutant P544A,72 % of wild-type H77
same,e20 binding activity (% of wild-type H77),H77 E1E2 mutant N540A,70 % of wild-type H77
same,e20 binding activity (% of wild-type H77),H77 E1E2 mutant N415A,98 % of wild-type H77
same,e20 binding activity (% of wild-type H77),H77 E1E2 mutant Y527A,92 % of wild-type H77
same,e20 binding activity (% of wild-type H77),H77 E1E2 mutant N532A,100 % of wild-type H77
same,e20 binding activity (% of wild-type H77),H77 E1E2 mutant P545A,97 % of wild-type H77
same,e20 binding activity (% of wild-type H77),H77 E1E2 mutant G418A,100 % of wild-type H77
same,e20 binding activity (% of wild-type H77),H77 E1E2 mutant H421A,100 % of wild-type H77
same,e20 binding activity (% of wild-type H77),H77 E1E2 mutant F550A,94 % of wild-type H77
same,e20 binding activity (% of wild-type H77),H77 E1E2 mutant W549A,96 % of wild-type H77
same,e20 binding activity (% of wild-type H77),H77 E1E2 mutant N417A,97 % of wild-type H77
same,e20 binding activity (% of wild-type H77),H77 E1E2 mutant G547A,98 % of wild-type H77
same,e20 binding activity (% of wild-type H77),H77 E1E2 mutant W420A,97 % of wild-type H77
same,e20 binding activity (% of wild-type H77),H77 E1E2 mutant W487A,100 % of wild-type H77
same,e20 binding activity (% of wild-type H77),H77 E1E2 mutant N423A,100 % of wild-type H77
same,e20 binding activity (% of wild-type H77),H77 E1E2 mutant S419A,100 % of wild-type H77
same,e20 binding activity (% of wild-type H77),H77 E1E2 mutant T416A,96 % of wild-type H77
same,e20 binding activity (% of wild-type H77),H77 E1E2 mutant D535A,10 % of wild-type H77
same,e20 binding activity (% of wild-type H77) (% of wild-type H77),[1],95
same,e20 binding activity (% of wild-type H77) (% of wild-type H77),[2],100
same,e20 binding activity (% of wild-type H77) (% of wild-type H77),[3],3
same,e20 binding activity (% of wild-type H77) (% of wild-type H77),[4],95
